Legend:
Nc1nc(O)nc(O)n1 [1] = system: T1, Nc1nc(O)nc(O)n1; assay: purified protein; assay type: biochemical, Pseudomonas sp. ADP; conditions: 200 mM sodium phosphate pH 7.5, glycerol, 301 K, 28.0 °C
T1 construct: full length, N-terminal His-tag (pETCC2, from pET14b), expressed in E. coli BL21(DE3); tag cut with thrombin for crystals; homotetramer ~210 kDa; Zn enzyme

Nc1nc(O)nc(O)n1 [2] = assay: purified protein; conditions: 200 mM sodium phosphate pH 7.5, glycerol, 301 K, 28.0 °C

Substance	Km (Nc1nc(O)nc(O)n1 [1])	kcat (Nc1nc(O)nc(O)n1 [1])	kcat/Km (Nc1nc(O)nc(O)n1 [1])	Km (Nc1nc(O)nc(O)n1 [2])
AtzC (N-isopropylammelide isopropylaminohydrolase) (Pseudomonas sp. ADP; D188A)	2200 ± 200 µM	106 ± 11.4 s⁻¹	49000 M⁻¹ s⁻¹	–
AtzC (N-isopropylammelide isopropylaminohydrolase) (Pseudomonas sp. ADP; D188N)	–	–	–	1900 ± 500 µM
AtzC (N-isopropylammelide isopropylaminohydrolase) (Pseudomonas sp. ADP; D303N)	6100 ± 600 µM	90.4 ± 8.9 s⁻¹	15000 M⁻¹ s⁻¹	–
AtzC (N-isopropylammelide isopropylaminohydrolase) (Pseudomonas sp. ADP; H219A)	1600 ± 400 µM	16.8 ± 4 s⁻¹	11000 M⁻¹ s⁻¹	–
AtzC (N-isopropylammelide isopropylaminohydrolase) (Pseudomonas sp. ADP; K65A)	6100 ± 600 µM	778 ± 79.7 s⁻¹	130000 M⁻¹ s⁻¹	–
AtzC (N-isopropylammelide isopropylaminohydrolase) (Pseudomonas sp. ADP; K65R)	2400 ± 300 µM	332 ± 34.3 s⁻¹	140000 M⁻¹ s⁻¹	–
AtzC (N-isopropylammelide isopropylaminohydrolase) (Pseudomonas sp. ADP; N304A)	4200 ± 200 µM	29.3 ± 1.7 s⁻¹	7000 M⁻¹ s⁻¹	–
AtzC (N-isopropylammelide isopropylaminohydrolase) (Pseudomonas sp. ADP; N304D)	25000 ± 4500 µM	189 ± 34 s⁻¹	7600 M⁻¹ s⁻¹	–
AtzC (N-isopropylammelide isopropylaminohydrolase) (Pseudomonas sp. ADP; Q160A)	1800 ± 300 µM	23 ± 3.5 s⁻¹	13000 M⁻¹ s⁻¹	–
AtzC (N-isopropylammelide isopropylaminohydrolase) (Pseudomonas sp. ADP; Q160E)	1300 ± 100 µM	10.4 ± 0.5 s⁻¹	8100 M⁻¹ s⁻¹	–

Source: paper PMC4577212, “X-Ray Structure and Mutagenesis Studies of the N-Isopropylammelide Isopropylaminohydrolase, AtzC” (PLoS ONE, 2015)
